# Laboratory results as given in paper doi:10.1101/2024.05.05.592584 (bioRxiv, 2024).
# Residue numbers refer to the chain shown, from its start.
# T1: SARS-CoV-2 B.1.617.2 (Delta) NTD (SARS-CoV-2 B.1.617.2 (Delta), strain)
# T1 chain: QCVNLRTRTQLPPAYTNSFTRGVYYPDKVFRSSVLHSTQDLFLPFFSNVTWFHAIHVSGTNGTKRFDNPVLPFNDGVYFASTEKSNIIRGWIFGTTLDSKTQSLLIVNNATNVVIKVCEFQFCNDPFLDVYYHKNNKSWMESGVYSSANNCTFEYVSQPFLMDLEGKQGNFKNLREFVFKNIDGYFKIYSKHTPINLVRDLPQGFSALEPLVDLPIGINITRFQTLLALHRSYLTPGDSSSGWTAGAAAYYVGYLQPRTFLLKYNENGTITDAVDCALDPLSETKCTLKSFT
# T2: SARS-CoV-2 P.1 (Gamma) NTD (SARS-CoV-2 P.1 (Gamma), strain)
# T2 chain: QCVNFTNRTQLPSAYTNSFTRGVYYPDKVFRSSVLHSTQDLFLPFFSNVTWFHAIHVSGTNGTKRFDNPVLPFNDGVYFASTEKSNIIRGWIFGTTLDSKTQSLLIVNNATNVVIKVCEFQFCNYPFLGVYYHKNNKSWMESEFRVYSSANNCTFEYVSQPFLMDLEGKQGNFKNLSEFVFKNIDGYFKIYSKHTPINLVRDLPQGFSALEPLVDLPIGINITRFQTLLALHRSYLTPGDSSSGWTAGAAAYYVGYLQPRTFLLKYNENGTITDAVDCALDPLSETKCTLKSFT
# T3: SARS-CoV-2 BA.1 NTD (SARS-CoV-2 Omicron BA.1, strain)
# T3 chain: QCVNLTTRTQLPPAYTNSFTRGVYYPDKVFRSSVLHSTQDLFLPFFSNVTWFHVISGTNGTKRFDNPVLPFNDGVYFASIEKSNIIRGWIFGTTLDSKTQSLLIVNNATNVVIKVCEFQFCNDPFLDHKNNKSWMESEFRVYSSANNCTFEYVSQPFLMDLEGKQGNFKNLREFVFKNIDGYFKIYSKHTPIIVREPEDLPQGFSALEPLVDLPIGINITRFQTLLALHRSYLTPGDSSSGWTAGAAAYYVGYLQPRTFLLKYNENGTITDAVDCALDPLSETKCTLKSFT
# T4: SARS-CoV-2 BA.2 NTD (SARS-CoV-2 Omicron BA.2, strain)
# T4 chain: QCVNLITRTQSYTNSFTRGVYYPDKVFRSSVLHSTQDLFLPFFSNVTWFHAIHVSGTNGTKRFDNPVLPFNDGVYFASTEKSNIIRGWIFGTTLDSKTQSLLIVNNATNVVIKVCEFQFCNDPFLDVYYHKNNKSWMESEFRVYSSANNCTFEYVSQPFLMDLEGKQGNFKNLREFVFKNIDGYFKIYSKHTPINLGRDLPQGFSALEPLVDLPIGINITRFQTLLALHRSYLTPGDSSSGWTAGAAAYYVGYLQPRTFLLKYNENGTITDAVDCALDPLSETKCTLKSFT
# T5: SARS-CoV-2 BA.2.75.2 NTD (SARS-CoV-2 Omicron BA.2.75.2, strain)
# T5 chain: T4 chain with K131E, W136R, F141L, I194V, G241S
# T6: SARS-CoV-2 BA.4/BA.5 NTD (SARS-CoV-2 Omicron BA.4/BA.5, strain)
# T6 chain: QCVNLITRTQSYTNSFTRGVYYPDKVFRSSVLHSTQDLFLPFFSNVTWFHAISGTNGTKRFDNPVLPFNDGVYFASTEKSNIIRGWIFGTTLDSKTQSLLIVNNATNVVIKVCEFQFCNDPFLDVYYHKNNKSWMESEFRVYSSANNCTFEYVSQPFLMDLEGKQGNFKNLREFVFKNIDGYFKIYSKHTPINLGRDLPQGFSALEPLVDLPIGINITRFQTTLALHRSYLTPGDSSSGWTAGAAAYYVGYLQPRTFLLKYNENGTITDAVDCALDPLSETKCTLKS
# T7: SARS-CoV-2 XBB.1.5 NTD (SARS-CoV-2 Omicron XBB.1.5, strain)
# T7 chain: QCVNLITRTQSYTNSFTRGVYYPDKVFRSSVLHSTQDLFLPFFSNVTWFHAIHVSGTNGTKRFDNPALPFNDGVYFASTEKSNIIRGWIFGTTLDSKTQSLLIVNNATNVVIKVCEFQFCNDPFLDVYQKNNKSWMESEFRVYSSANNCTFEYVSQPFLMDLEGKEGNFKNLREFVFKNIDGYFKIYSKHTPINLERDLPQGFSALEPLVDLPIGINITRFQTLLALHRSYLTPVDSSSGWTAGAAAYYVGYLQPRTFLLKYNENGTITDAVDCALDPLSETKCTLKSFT
# T8: SARS-CoV-2 XBB.1.16 NTD (SARS-CoV-2 Omicron XBB.1.16, strain)
# T8 chain: T7 chain with E163V
# T9: SARS-CoV-2 EG.5.1 NTD (SARS-CoV-2 Omicron EG.5.1, strain)
# T9 chain: T7 chain with Q36H
# B1: C1520 IgG (antibody, V domains shown)
# VH: EVQLVESGGGLVQPGGSLRLACVASGFTFSIYEMNWVRQAPGKGLEWVSYITTSGHARYNADSVKGRFTISRDNSKNSFYLQMNSLRAEDTAIYYCARPQYHYYDTSTYHSYGFDIWGQGTMVTVSS
# VL: QLVLTQSPSASASLGASVNLTCTLSSGHNSYAIAWHQQQPEKGPRYLMSLNSDGSHTKGDGIPDRFSGSSSGAERFLTISSLQSEDEADYYCQTWDTGIRVFGGGTRLTVL
# notes: copies: 2 + 2
# B2: C952 IgG (antibody, V domains shown)
# VH: EVQLVQSGAEVKKPGESLTISCKDSGNSFTIYWIGWVRQMPGKGLEWMGMIYPGDSGTRYSPSFEGQVTISADESINTAYLQWRSLKASDTAMYYCVRGIAVDWYFDLWGRGTLVTVSS
# VL: QSVLTQPPSVSGAPGQRVTISCTGSSSNIGAGFDVHWYQQLPGTAPKLLIYGNNNRPSGVPDRFSGSKSATSASLAITGLQAEDEADYYCQSSDSSLSGLYVFGTGTNVIVL
# notes: copies: 2 + 2
# B3: C1533 IgG (antibody, V domains shown)
# VH: QVQLVQSGAEVKKPGSSVKVSCKTSGVIFSRNAFSWVRQAPGQGLEWMGRIIPFLDVTNSAQEFQGRVTLNADKSTSTVYMELSSLRSEDTAIYYCARHNGDPYDFWSGYNTWAGGLDVWGQGTTVTVSS
# VL: QSVLTQPPSASGTPGQRVTISCSGSGSNIGSNAVNWYQQLPGTAPKLLIYNQNQRPSGVPDRFSGSKSGTSASLAIGGLQSEDEADYYCATWDDNLSGLVFGGGTKLTVL
# notes: copies: 2 + 2
# B4: C1596 IgG (antibody, V domains shown)
# VH: QVQLVQSGAEVKKPGSSVKVSCKASGGTFINYAVTWVRQAPGQGLEWMGGIIPILGIPNYAQKFQGRVTITADKSTSTAYMELSSLRSEDTAVYYCARVPQAGAAQGHYYYYYGMDVWGQGTTVTVSS
# VL: not shown
# notes: copies: 2 + 2
# How the values were obtained:
# Assay in all cases: BLI
# Conditions in all cases: both partners purified
# [1] = biological target: T1, SARS-CoV-2 B.1.617.2 (Delta) NTD
# [2] = biological target: T2, SARS-CoV-2 P.1 (Gamma) NTD
# SARS-CoV-2 BA.1 NTD = biological target: T3, SARS-CoV-2 BA.1 NTD
# SARS-CoV-2 BA.2 NTD = biological target: T4, SARS-CoV-2 BA.2 NTD
# SARS-CoV-2 BA.2.75.2 NTD = biological target: T5, SARS-CoV-2 BA.2.75.2 NTD
# SARS-CoV-2 BA.4/BA.5 NTD = biological target: T6, SARS-CoV-2 BA.4/BA.5 NTD
# SARS-CoV-2 BA.4/BA.5 RBD = SARS-CoV-2 BA.4/BA.5 RBD (SARS-CoV-2 Omicron BA.4/BA.5, strain)
# SARS-CoV-2 XBB.1.5 RBD = SARS-CoV-2 XBB.1.5 RBD (SARS-CoV-2 Omicron XBB.1.5, strain)
# SARS-CoV-2 EG.5.1 RBD = SARS-CoV-2 EG.5.1 RBD (SARS-CoV-2 Omicron EG.5.1, strain)
# SARS-CoV-2 HV.1 RBD = SARS-CoV-2 HV.1 RBD (SARS-CoV-2 Omicron HV.1, strain)
# SARS-CoV-2 XBB.1.5 NTD = biological target: T7, SARS-CoV-2 XBB.1.5 NTD
# SARS-CoV-2 XBB.1.16 NTD = biological target: T8, SARS-CoV-2 XBB.1.16 NTD
# SARS-CoV-2 EG.5.1 NTD = biological target: T9, SARS-CoV-2 EG.5.1 NTD
binder,measurement,setting,value
B1,Kd,[1],47 nM
same,koff,[1],0.00141 s⁻¹
same,kon,[1],30000 M⁻¹ s⁻¹
same,Kd,[2],230 nM
same,koff,[2],0.00301 s⁻¹
same,kon,[2],13100 M⁻¹ s⁻¹
same,Kd,SARS-CoV-2 BA.1 NTD,118 nM
same,koff,SARS-CoV-2 BA.1 NTD,0.00418 s⁻¹
same,kon,SARS-CoV-2 BA.1 NTD,35500 M⁻¹ s⁻¹
same,Kd,SARS-CoV-2 BA.2 NTD,14.3 nM
same,koff,SARS-CoV-2 BA.2 NTD,0.000514 s⁻¹
same,kon,SARS-CoV-2 BA.2 NTD,36000 M⁻¹ s⁻¹
same,Kd,SARS-CoV-2 BA.2.75.2 NTD,185 nM
same,koff,SARS-CoV-2 BA.2.75.2 NTD,0.00569 s⁻¹
same,kon,SARS-CoV-2 BA.2.75.2 NTD,30700 M⁻¹ s⁻¹
same,Kd,SARS-CoV-2 BA.4/BA.5 NTD,11.4 nM
same,koff,SARS-CoV-2 BA.4/BA.5 NTD,0.000528 s⁻¹
same,kon,SARS-CoV-2 BA.4/BA.5 NTD,46300 M⁻¹ s⁻¹
B2,Kd,SARS-CoV-2 BA.4/BA.5 RBD,8.22 nM
same,koff,SARS-CoV-2 BA.4/BA.5 RBD,0.00358 s⁻¹
same,kon,SARS-CoV-2 BA.4/BA.5 RBD,435000 M⁻¹ s⁻¹
same,Kd,SARS-CoV-2 XBB.1.5 RBD,99.3 nM
same,koff,SARS-CoV-2 XBB.1.5 RBD,0.0046 s⁻¹
same,kon,SARS-CoV-2 XBB.1.5 RBD,46300 M⁻¹ s⁻¹
same,Kd,SARS-CoV-2 EG.5.1 RBD,180 µM
same,koff,SARS-CoV-2 EG.5.1 RBD,0.289 s⁻¹
same,kon,SARS-CoV-2 EG.5.1 RBD,1600 M⁻¹ s⁻¹
same,Kd,SARS-CoV-2 HV.1 RBD,939 µM
same,koff,SARS-CoV-2 HV.1 RBD,0.037 s⁻¹
same,kon,SARS-CoV-2 HV.1 RBD,39.4 M⁻¹ s⁻¹
B3,Kd,[2],24.9 nM
same,koff,[2],0.00107 s⁻¹
same,kon,[2],43100 M⁻¹ s⁻¹
B4,Kd,[1],124 nM
same,Kd,[2],282 nM
same,Kd,SARS-CoV-2 BA.1 NTD,88.2 nM
same,Kd,SARS-CoV-2 BA.2 NTD,685 nM
same,Kd,SARS-CoV-2 BA.2.75.2 NTD,607 nM
same,Kd,SARS-CoV-2 BA.4/BA.5 NTD,674 nM
same,Kd,SARS-CoV-2 XBB.1.5 NTD,529 nM
same,Kd,SARS-CoV-2 XBB.1.16 NTD,591 nM
same,Kd,SARS-CoV-2 EG.5.1 NTD,410 nM
